Data published in the supplement of paper PMC9170038.

System: K4 kissing-loop RNA reporter
Assay: apparent KD of K4 kissing-loop reporter; higher = weaker reporter binding
Conditions: Eterna round: R107
Experimental: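 RNA-MaP round R107: designed RNA switches with theophylline, tryptophan, arginine or FMN aptamers are transcribed on-chip within common flanks. They are titrated with a labelled K4 kissing-loop RNA reporter in RNA-MaP buffer (100 mM Tris pH 7.5, 80 mM KCl, 4 mM MgCl2), without ligand or with the indicated ligand. Median apparent KD per design.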

[1] = input ligand: theophylline 20 uM
[2] = input ligand: tryptophan 2.4 mM
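Note: bound reporter read as fluorescence of individual clusters on recovered sequencing chips by microscopy, with normalized cluster intensities fitted with a binding model.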

| Sequence | apparent KD of K4 kissing-loop reporter (input ligand: FMN 200 uM) [nM] | apparent KD of K4 kissing-loop reporter (input ligand: arginine 13.2 mM) [nM] | apparent KD of K4 kissing-loop reporter (input ligand: none) [nM] | apparent KD of K4 kissing-loop reporter [1] [nM] | apparent KD of K4 kissing-loop reporter [2] [nM] |
| --- | --- | --- | --- | --- | --- |
| GUACGCUGCUGAGUGAUGUUCAGCAAUCGCUAGGAUAUCGCUUUUGCGAGAAGGAGCGCAAUGAGGAAACUCGUUGUUAGUGUAC [FMN A 28] | 166 | 198 | 255 | 204 | 207 |
| AUGCAGUGAUGUUGCUUUGUAUAAACAGAUACCAGUGAAUUUUAACACCCUUGGCAGCUGAUAGAUUCUUAAUUCUAUUAUAUAA [JR_SSTheophyA_Sub020] | 164 | 189 | 165 | 197 | 140 |
| UAACUGCAGUGAUGUUGCAGAUGUCCUGACUAGGAUAUCAGGAAACUGAGAAGGAGUCCCUUCUACACUGCAGAGAAGGAGGACA [[K1]-[K2]-[F1]'-[F1]-[F2]-[F2]'-[K]'-[F]''_Design1] | 283 | 125 | 145 | 125 | 139 |
| UACUAUAUUCUGUCGUUUAUAUUAUUUUGUCAGGAUAUCGUUUAUUCGAGAAGGGACACUAUCUAGUGAUGUUAGAUUUUUCUUU [JR_Nu_ExcFMNA_Sub029] | 55.8 | 130 | 86.7 | 108 | 67.7 |
| GGACCUCAGUGAUGUUGAGGUAACGCUGAUACCAGUGACUUAAUUCGCCCUUGGCAGCAGUCCACCGAGGUAUCUGAUUAGGUCU [Default title] | 133 | 145 | 149 | 155 | 139 |
| AAGGCGUCGAGUUUGGUGGCGCCAACAGAUACCAGAUUACCUCCAAUCCCUUGGCAGCUGGCUUGAGAGUGAUGUUUUCAAAAGU [theeternabot_sameState_KL_Theo_A_33] | 532 | 447 | 627 | 528 | 349 |
| AGUACGGACACGGCCGCCACUCAGAAGAAGACAGUAGUGAUGUUACUGAUGGUGAGAAUAAUAAAGAGGACCGGGUGUCGUGCAA [#05 K4 Tryptophan B Same State] | 270 | 191 | 286 | 230 | 171 |
| AGGGUAAGGCGUUAACAUGACACCUGGGAAGGAGCGCGGUACACCGCAGGUAGGUCGCCCAGUGAUGUUGGGUGUAAGUAUGAGU [KL-XArg-A23] | 137 | 109 | 135 | 146 | 115 |
| CCUUCUCUUGAUAGUGAUGUUAUCAAGGGCAAGGAUAUCAUCUCAAUGAGAAGGUGUCCUUGAUAACAUGGAGGUCUGAAACAGA [Omei KL FMN A Exc C v4] | 157 | 165 | 209 | 159 | 206 |
| AGAUAGGGCUGAAGGAGCGUCGGAGAAGAGAAGAAGAAAUCCAGUGAUGUUGGAUAAAUCCGACAGGUAGGUCGCAGUUUUAUGA [hbob_SS_Arginine_B_2t137] | 122 | 135 | 115 | 179 | 119 |
| GGGAGUAUUGCGGCCGCCACUGAGGAAGAAGAAGGCCAUAGUGAUGUUAUGGAGGAAAGGAAGAACAGGACCGGGCAGUAGAUUU [#22 K4 Tryptophan B Same State] | 154 | 157 | 175 | 188 | 127 |
| GUAUAAAUAUAAGGAUAUGCAGGGAAAGUAAGAAUGGGUUAGUUGAACUUUAGUGAUGUUGAGGAAGCAGAAGGUGUAUAUGUGU [FMN B same state] | 650 | 272 | 381 | 322 | 319 |
| UGUGCUGUGUAGUGUAAUGUUAUGCGGGAUACCAGAGUCUUUUUAUUCCCUUGGCAGCUUGAGUGAUGUUUGAUGCUGUUCUUGU [uujmullin] | 303 | 305 | 350 | 371 | 287 |
| GCCGUAGAUUGAAGGAGCGGGCCGUAGUGAUGUUACGCCAAAUUAUCCUUUCUUGAGGUGGUCCAGGUAGGUCGCAAUCUACGGC | 168 | 144 | 148 | 109 | 118 |
| AGUGAUGUUGUGUGAUGUUAGUGAAGUGAUCGAGGACCGGUACGGCCGCCACUCGAGUGAUGAGUGAGUGAUGUUUGUUUAGUGG [#17 K4 Tryptophan A Same State] | 258 | 124 | 206 | 186 | 139 |
| AGUGAUGUUUCUUUUAAGAGUGAUGUUUUUCGAGGACCGGUACGGCCGCCACUCGAGUGAUGAGUGCGUUGUUGUGAUGUUUAGU [#12 K4 Tryptophan A Exclusion] | 461 | 313 | 425 | 459 | 303 |
| CGCUGGAGUGAUGUUCCAGCUUCUACGGAUACCAGCCACGCCAGCGGCCCUUGGCAGCCGCAAAUUGCAGUGAUGUUGUGAUGCC [Same State Theophylline A GF 4] | 314 | 278 | 312 | 312 | 283 |
| UGAUUGGCGAAAGUAGUGAUGUUACGAAUAUAGGAUAUUAGAGGAAUAAGAAGGAUAAGGGAGAAAUAGGUAAAUUGUUGGUUGG [whbob_SS_FMNA__2th170] | 132 | 79.7 | 128 | 126 | 100 |
| UAUUUAGUGACGGCCGCCACUAUUGUGAUUUAAUUGUUUGAGUGAUGUUUUGAUGUUUGAUUUUGUAGGACCGGGUUAUGUGUUA [tyttmullin] | 1020 | 745 | 827 | 791 | 749 |
| GUGGUGGUGGCGGCCGCCACUGAAGAUAAUGAGUGAUGUUCAAGUGAUGUUAAUAAGAACAGUAUCAGGACCGGGCCACCACCAC [Default title] | 37.5 | 27.7 | 34.1 | 25.4 | 33.8 |
| ACUAUCCGUAUAUAUAAGAUAGCUGGAGAUACCAGUUCAAUCUUGAACCCUUGGCAGCUCACCACCAAGUGAUGUUUGGCACGAC [theeternabot_sameState_KL_Theo_A_42] | 326 | 241 | 326 | 292 | 273 |

| Sequence | apparent KD of K4 kissing-loop reporter (input ligand: FMN 200 uM) [nM] | apparent KD of K4 kissing-loop reporter (input ligand: arginine 13.2 mM) [nM] | apparent KD of K4 kissing-loop reporter (input ligand: none) [nM] | apparent KD of K4 kissing-loop reporter [1] [nM] | apparent KD of K4 kissing-loop reporter [2] [nM] |
| --- | --- | --- | --- | --- | --- |
| ACAUCGGUUGAGAGUGAUGUUCCUUGUGUUCGAGGACCGGUACGGCCGCCACUCGGGUAGAAAAUAACAGAUGUGUUUCAUUUUU [BDazzled - #17 SS Tryptophan A] | 180 | 93.2 | 141 | 277 | 271 |
| GACAUAUUCCAGGAUACCAGUGAUCCGCCGCAGCCGAAGACUAGUGAUGUUAGUUUCUGUCACCCUUGGCAGCCUCGAGUCUAAU [theeternabot_sameState_KL_Theo_B_15] | 420 | 487 | 498 | 572 | 434 |
| UUAUAUAUAUUAGAUACCAGUUUAAUGGAAACAAAUUAUGUUAUGAGUGAUGUUCAUGUAAGCCCUUGGCAGCUGGUAUGGGUUU [KL-XTheo-B18] | 235 | 305 | 237 | 322 | 207 |
| CUCGAGUGAUGUUCGACGCGUCCGUACGAUACCAGCGUAGACCGUCGCCCUUGGCAGCGUGAUGCAGCCCGAAAGUCCGGUUCCU [theeternabot_sameState_KL_Theo_A_26] | 1160 | 833 | 1430 | 1120 | 1070 |
| UCCUAGGCUCGAAAGAGCCUAGGAUUUACUCAGGAUAUCCGGAAACGGAGAAGGGAGUGACUAGUGAUGUUAGGGACUCCCUAUU | 93.1 | 81.7 | 87.9 | 85.2 | 94.4 |
| GCAGUGAUGUUGCGGAUGUACAGUGGCGUGCGAGGACCGGUACGGCCGCCACUCGUACAGACCAAGCUAAUACAUCGAUAGGUGA [whbob_SS_Tryp_A_m3] | 344 | 247 | 353 | 287 | 218 |
| GAACGAGUGAUGUUCGUUAUUAUGCAUUCCGAGGAUAUGGGAUUAGCCAGAAGGCGGAAUCAAUCUUCGAGUGAUGUUCGAAGAU [Same State FMN A GF 11] | 129 | 138 | 142 | 119 | 136 |
| AGGAUCGAAGAUCCAGCAGUCAAGCAAUACCGAGGACCGGUACGGCCGCCACUCGGAGUGAUGUUCCGAAGACUGCAAAAUAAAA [#SwitchBubble 8] | 640 | 1050 | 955 | 592 | 86.2 |
| UCGGACGCGCACCUAGGCCAAUCCACUGCGAAGGAUAUGCGCGCCAGCAGAAGGUCGUUUUAUGAGUGAUGUUUAGAAACAGCGU [theeternabot_exclusion_KL_FMN_A_25] | 428 | 250 | 305 | 294 | 246 |
| GGCGGCCGCGCGCAAGCGCGGCCGGCCGAUACCAGCGCGACGGCGCGCCCUUGGCAGCGGCGCCGAGUGAUGUUCGGCCUGCCGG [#2 Same State - Theophylline A Attempt #16 (HarryS)] | 376 | 447 | 585 | 454 | 482 |
| UGAUACCAGACGGCCGCCACUAGACCAGUCAAAGACUGGAUGUGAUGUUUGAGGAGUGAUGUUCCUAGGACCGGGUCUGGUAUCU [TrypBX 4 #Palindromic #SwitchBubble #StaticStem] | 91.3 | 76.7 | 82.4 | 87.6 | 28.2 |
| CUGCAACAUAACUUCUUCGUCCUAGAAGACUAGGAUAUCAGGAAACUGAGAAGGAGUCUCUGCAGUGAUGUUGCAGUUAGGACGA [KL-SSFMN-A7] | 139 | 135 | 115 | 160 | 138 |
| UUUUUUAGUUGAGUUAUACAUAGCGGACUAUAGGAUAUCUAGAAAUAGAGAAGGAUAAGAGUGAUGUUCUUAUUCAACUAUAGUG | 101 | 87.4 | 90.9 | 109 | 91.6 |
| AAUUUGGGUUCGGCCGCCACUCCAGUGAUGUUGGAUGGCGAAAUAAAGGCUAGACCAGGUUGCCGGAGGACCGGGAAUCCUGUAC [Qumabi] | 182 | 152 | 164 | 139 | 112 |
| CUAUCGGUGCCAGUGAUGUUGGUACCGCCACGAGGACCGGUACGGCCGCCACUCGCAUUAGAUGAUCACACAGUGUAUACUGCUA [Aleusorza] | 139 | 128 | 135 | 159 | 122 |
| UCCUGCAAUCUGCCACGAAAGUGGAUGGAUACCAGAGUCGAAAGACUCCCUUGGCAGCCAGUGAUGUUGGAAGCAGGUAAAUAAA | 268 | 396 | 454 | 460 | 271 |
| UCCCGAGUGAUGUUCGGCGCGGUCACCGAAGGAGCGGGCGAAAGCCCAGGUAGGUCGCGGUAGCGGAGUGAUUCUCCGCGACCGC [Same State Arginine A GF 24] | 509 | 241 | 286 | 344 | 298 |
| AGAACUGUCUGGGAUACCAGCCGAGGAGUGAUGUUCCGGCUCGACGAAACGUCGAGCUACGGCCCUUGGCAGCUCAGACAGUUCA [#22 K4 Theophylline B Same State] | 1990 | 639 | 1170 | 735 | 340 |
| UAUAAUUCGGCGGCCGCCACUGACCAUAGCCUUCGAUGGCCAGUGAUGUUGGCCUCUGGCUCUAACAGGACCGGGCCGAAUUGUG [Reresoza] | 211 | 164 | 180 | 138 | 120 |
| UGAUACCAGGCGGCCGCCACUCCUACAGGUCAAAGACCUGUAAAGCUGGUUCUCCAGUGAUGUUGGAGGACCGGGCCUGGUAUCU [FiskerMod 29 - Jieux - Exclusion - Tryptophan B] | 206 | 156 | 179 | 150 | 428 |
| GGUGUUGUUUGUGCCGCCUUCCUCGUUCCUCGAGGACCGGUACGGCCGCCACUCGAGUGAUGUUUGGGUAGCGAUCCCUGCUAGU [Bdazzled - #12 Exc. Tryptophan A] | 877 | 696 | 1000 | 822 | 892 |
